Results on one substance are retold here after patent US20170313756A1.

Like-named read-outs stand apart in the source and are kept apart here.

What all share (assay): 125I-NDP-MSH competition, HEK293 membranes
Test [1] concerns the target melanocortin 1 receptor (MC1R) (UniProt Q01726).
For test [2], the target named is melanocortin 5 receptor (MC5R) (UniProt P33032).
Test [3] has as its target melanocortin 1 receptor (MC1R) (UniProt Q01726). This is another data set of the same source.
For test [4] the target is unchanged. The source holds these as a separate data set.

Chain of melanocortin 1 receptor (MC1R) (Q01726 whole entry): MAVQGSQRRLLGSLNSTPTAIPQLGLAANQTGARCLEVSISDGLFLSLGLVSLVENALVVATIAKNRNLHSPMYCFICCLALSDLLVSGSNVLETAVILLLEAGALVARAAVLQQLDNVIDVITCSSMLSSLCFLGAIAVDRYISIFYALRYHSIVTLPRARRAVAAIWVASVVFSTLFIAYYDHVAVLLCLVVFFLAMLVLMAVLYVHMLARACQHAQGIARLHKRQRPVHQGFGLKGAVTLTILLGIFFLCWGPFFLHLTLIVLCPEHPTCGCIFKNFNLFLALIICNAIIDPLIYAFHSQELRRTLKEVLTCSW
Chain of melanocortin 5 receptor (MC5R) (P33032 whole entry): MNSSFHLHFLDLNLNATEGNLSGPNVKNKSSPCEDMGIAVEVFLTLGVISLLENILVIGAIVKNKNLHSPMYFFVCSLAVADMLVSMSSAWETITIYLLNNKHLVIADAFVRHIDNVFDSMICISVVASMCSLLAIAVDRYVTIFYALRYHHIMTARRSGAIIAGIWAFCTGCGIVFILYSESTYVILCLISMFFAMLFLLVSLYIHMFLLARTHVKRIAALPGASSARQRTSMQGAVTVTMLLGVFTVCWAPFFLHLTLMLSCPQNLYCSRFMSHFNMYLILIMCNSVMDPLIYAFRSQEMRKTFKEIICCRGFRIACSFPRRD

What is called Ki is the equilibrium dissociation constant of an inhibitor or competing ligand from its target. A higher Ki goes with lower affinity. Take retro-inverso α-MSH (peptide): the Ki in test [1] worked out at 4.6 nM; in test [2], 25000 nM; in test [3], 4 nM; in test [4] it was 4.1 nM.
